The values that follow come from paper PMC2797226 (The Journal of Biological Chemistry, 2009).

For the assay, the target named is T1, His6-tagged Lhs1p (wild type) (S. cerevisiae, UniProt P36016 21-881).
T1 sequence: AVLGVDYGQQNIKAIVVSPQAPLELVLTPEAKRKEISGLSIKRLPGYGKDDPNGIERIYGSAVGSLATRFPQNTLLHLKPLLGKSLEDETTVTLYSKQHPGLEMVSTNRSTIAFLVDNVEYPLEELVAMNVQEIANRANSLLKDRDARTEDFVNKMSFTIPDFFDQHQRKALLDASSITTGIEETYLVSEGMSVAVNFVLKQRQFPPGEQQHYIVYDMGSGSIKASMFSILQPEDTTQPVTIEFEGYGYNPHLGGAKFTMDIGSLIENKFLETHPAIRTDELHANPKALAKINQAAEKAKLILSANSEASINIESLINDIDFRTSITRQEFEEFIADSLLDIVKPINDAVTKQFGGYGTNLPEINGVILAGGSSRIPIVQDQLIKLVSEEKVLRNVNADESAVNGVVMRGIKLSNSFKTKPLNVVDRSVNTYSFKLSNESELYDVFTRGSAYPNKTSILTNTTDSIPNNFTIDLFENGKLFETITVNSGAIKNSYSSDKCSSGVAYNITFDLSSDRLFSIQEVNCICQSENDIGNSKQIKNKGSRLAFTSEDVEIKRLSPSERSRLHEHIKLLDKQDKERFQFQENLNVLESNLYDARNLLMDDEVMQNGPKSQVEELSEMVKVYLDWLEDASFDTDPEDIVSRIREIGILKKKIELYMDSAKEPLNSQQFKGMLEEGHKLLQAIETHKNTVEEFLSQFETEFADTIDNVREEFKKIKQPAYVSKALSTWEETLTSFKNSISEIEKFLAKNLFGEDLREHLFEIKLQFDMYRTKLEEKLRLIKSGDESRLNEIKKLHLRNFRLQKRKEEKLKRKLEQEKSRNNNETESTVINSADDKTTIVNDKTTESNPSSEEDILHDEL
The assay is described as follows: pull-down.

B1: GST-tagged Kar2p (wild type) (natural protein)
chain: not shown
Consider B1, for which the binding result was “binds”.

B2: GST-tagged Kar2p(G246D) (natural protein)
chain: not shown
For B2, the binding result is given as “binds”.
